Reference: publication PMC8342441

Molecular target: β-arrestin 2-Rluc (UniProt P32121)
Assay: BRET (β-arrestin 2 recruitment)
Conditions: point at the highest AngII dose, read off a plot
[1] = Log[AngII] = -4 M, parent: est. 0.086
[2] = HEK293 cells, left plot, Log[AII] = -5 M, parent: est. 0.36
[3] = HEK293 cells, Log[AII] = -5 M, parent: est. 0.37
[4] = HEK293 cells, right plot, Log[AII] = -5 M, parent: est. 0.35

Substance: YFP-tagged WT angiotensin II type 1 receptor (AT1 receptor) (from UniProt P30556) N7.49A; P7.50A; F7.55A
- response [1]: 0.006 ΔBRET

Substance: YFP-tagged WT angiotensin II type 1 receptor (AT1 receptor) (from UniProt P30556) F7.55W
- response [2]: 0.09 ΔBRET

Substance: YFP-tagged WT angiotensin II type 1 receptor (AT1 receptor) (from UniProt P30556) Y7.53I
- response [3]: 0.41 ΔBRET

Substance: YFP-tagged WT angiotensin II type 1 receptor (AT1 receptor) (from UniProt P30556) F1.48A; L1.52A; I1.57A
- response [1]: 0.065 ΔBRET

Substance: YFP-tagged WT angiotensin II type 1 receptor (AT1 receptor) (from UniProt P30556) N3.35A
- response [3]: 0.12 ΔBRET

Substance: YFP-tagged WT angiotensin II type 1 receptor (AT1 receptor) (from UniProt P30556) G1.49L
- response [2]: 0.05 ΔBRET

Substance: YFP-tagged WT angiotensin II type 1 receptor (AT1 receptor) (from UniProt P30556) K8.49A; F8.50A; K8.51A; Y8.53A; F8.54A
- response [1]: 0.006 ΔBRET

Substance: YFP-tagged WT angiotensin II type 1 receptor (AT1 receptor) (from UniProt P30556) F8.54W
- response [2]: 0.26 ΔBRET

Substance: YFP-tagged WT angiotensin II type 1 receptor (AT1 receptor) (from UniProt P30556) Y7.53A
- response [4]: 0.055 ΔBRET

Substance: YFP-tagged WT angiotensin II type 1 receptor (AT1 receptor) (from UniProt P30556) N7.49A
- response [4]: 0.25 ΔBRET

Substance: YFP-tagged WT angiotensin II type 1 receptor (AT1 receptor) (from UniProt P30556) D2.50N
- response [3]: 0.36 ΔBRET
